Numbering of substitutions follows the chain as printed.
Columns and labels:
[1] = test system: T1, SaMhqR F11A F11A (Staphylococcus aureus COL), ORF:0a4449b0; assay: EMSA; conditions: EMSA: 15 ng probe, 0.01-1.0 uM protein, 60 min; for MHQ tests protein diluted to 0.6 uM in 10 mM Tris-HCl pH 7.5 and treated with 0.5-100 mM MHQ for 30 min at …
T1 sequence: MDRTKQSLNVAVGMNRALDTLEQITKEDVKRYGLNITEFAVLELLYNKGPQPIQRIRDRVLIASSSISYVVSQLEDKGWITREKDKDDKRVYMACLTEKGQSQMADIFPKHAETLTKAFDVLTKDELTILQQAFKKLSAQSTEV

[2] = test system: T2, SaMhqR Y69A Y69A (Staphylococcus aureus COL), ORF:0a4449b0; assay: EMSA; conditions: EMSA: 15 ng probe, 0.01-1.0 uM protein, 60 min; for MHQ tests protein diluted to 0.6 uM in 10 mM Tris-HCl pH 7.5 and treated with 0.5-100 mM MHQ for 30 min at …
T2 sequence: T1 sequence with A11F, Y69A

[3] = test system: T3, SaMhqR K89A K89A (Staphylococcus aureus COL), ORF:0a4449b0; assay: EMSA; conditions: EMSA: 15 ng probe, 0.01-1.0 uM protein, 60 min; for MHQ tests protein diluted to 0.6 uM in 10 mM Tris-HCl pH 7.5 and treated with 0.5-100 mM MHQ for 30 min at …
T3 sequence: T1 sequence with A11F, K89A

[4] = test system: T4, SaMhqR V70A V70A (Staphylococcus aureus COL), ORF:0a4449b0; assay: EMSA; conditions: EMSA: 15 ng probe, 0.01-1.0 uM protein, 60 min; for MHQ tests protein diluted to 0.6 uM in 10 mM Tris-HCl pH 7.5 and treated with 0.5-100 mM MHQ for 30 min at …
T4 sequence: T1 sequence with A11F, V70A

[5] = test system: T5, SaMhqR S68A S68A (Staphylococcus aureus COL), ORF:0a4449b0; assay: EMSA; conditions: EMSA: 15 ng probe, 0.01-1.0 uM protein, 60 min; for MHQ tests protein diluted to 0.6 uM in 10 mM Tris-HCl pH 7.5 and treated with 0.5-100 mM MHQ for 30 min at …
T5 sequence: T1 sequence with A11F, S68A

[6] = test system: T6, SaMhqR R90A R90A (Staphylococcus aureus COL), ORF:0a4449b0; assay: EMSA; conditions: EMSA: 15 ng probe, 0.01-1.0 uM protein, 60 min; for MHQ tests protein diluted to 0.6 uM in 10 mM Tris-HCl pH 7.5 and treated with 0.5-100 mM MHQ for 30 min at …
T6 sequence: T1 sequence with A11F, R90A

[7] = test system: T7, SaMhqR E43A E43A (Staphylococcus aureus COL), ORF:0a4449b0; assay: EMSA; conditions: EMSA: 15 ng probe, 0.01-1.0 uM protein, 60 min; for MHQ tests protein diluted to 0.6 uM in 10 mM Tris-HCl pH 7.5 and treated with 0.5-100 mM MHQ for 30 min at …
T7 sequence: T1 sequence with A11F, E43A

[8] = test system: T8, SaMhqR H111A H111A (Staphylococcus aureus COL), ORF:0a4449b0; assay: EMSA; conditions: EMSA: 15 ng probe, 0.01-1.0 uM protein, 60 min; for MHQ tests protein diluted to 0.6 uM in 10 mM Tris-HCl pH 7.5 and treated with 0.5-100 mM MHQ for 30 min at …
T8 sequence: T1 sequence with A11F, H111A

[9] = test system: T9, SaMhqR Q54A Q54A (Staphylococcus aureus COL), ORF:0a4449b0; assay: EMSA; conditions: EMSA: 15 ng probe, 0.01-1.0 uM protein, 60 min; for MHQ tests protein diluted to 0.6 uM in 10 mM Tris-HCl pH 7.5 and treated with 0.5-100 mM MHQ for 30 min at …
T9 sequence: T1 sequence with A11F, Q54A

[10] = test system: T10, SaMhqR Q73A Q73A (Staphylococcus aureus COL), ORF:0a4449b0; assay: EMSA; conditions: EMSA: 15 ng probe, 0.01-1.0 uM protein, 60 min; for MHQ tests protein diluted to 0.6 uM in 10 mM Tris-HCl pH 7.5 and treated with 0.5-100 mM MHQ for 30 min at …
T10 sequence: T1 sequence with A11F, Q73A

[11] = test system: T11, SaMhqR F39A F39A (Staphylococcus aureus COL), ORF:0a4449b0; assay: EMSA; conditions: EMSA: 15 ng probe, 0.01-1.0 uM protein, 60 min; for MHQ tests protein diluted to 0.6 uM in 10 mM Tris-HCl pH 7.5 and treated with 0.5-100 mM MHQ for 30 min at …
T11 sequence: T1 sequence with A11F, F39A

[12] = test system: T12, SaMhqR Y92A Y92A (Staphylococcus aureus COL), ORF:0a4449b0; assay: EMSA; conditions: EMSA: 15 ng probe, 0.01-1.0 uM protein, 60 min; for MHQ tests protein diluted to 0.6 uM in 10 mM Tris-HCl pH 7.5 and treated with 0.5-100 mM MHQ for 30 min at …
T12 sequence: T1 sequence with A11F, Y92A

[13] = test system: T13, SaMhqR E43A,H111A E43A;H111A (Staphylococcus aureus COL), ORF:0a4449b0; assay: EMSA; conditions: EMSA: 15 ng probe, 0.01-1.0 uM protein, 60 min; for MHQ tests protein diluted to 0.6 uM in 10 mM Tris-HCl pH 7.5 and treated with 0.5-100 mM MHQ for 30 min at …
T13 sequence: T1 sequence with A11F, E43A, H111A

[14] = test system: T14, SaMhqR S65A S65A (Staphylococcus aureus COL), ORF:0a4449b0; assay: EMSA; conditions: EMSA: 15 ng probe, 0.01-1.0 uM protein, 60 min; for MHQ tests protein diluted to 0.6 uM in 10 mM Tris-HCl pH 7.5 and treated with 0.5-100 mM MHQ for 30 min at …
T14 sequence: T1 sequence with A11F, S65A

[15] = test system: T15, SaMhqR WT (Staphylococcus aureus COL), ORF:0a4449b0; assay: EMSA; conditions: EMSA: 15 ng probe, 0.01-1.0 uM protein, 60 min; for MHQ tests protein diluted to 0.6 uM in 10 mM Tris-HCl pH 7.5 and treated with 0.5-100 mM MHQ for 30 min at …
T15 sequence: T1 sequence with A11F

[16] = test system: T16, SaMhqR A63E A63E (Staphylococcus aureus COL), ORF:0a4449b0; assay: EMSA; conditions: EMSA: 15 ng probe, 0.01-1.0 uM protein, 60 min; for MHQ tests protein diluted to 0.6 uM in 10 mM Tris-HCl pH 7.5 and treated with 0.5-100 mM MHQ for 30 min at …
T16 sequence: T1 sequence with A11F, A63E

[17] = test system: T17, SaMhqR V91A V91A (Staphylococcus aureus COL), ORF:0a4449b0; assay: EMSA; conditions: EMSA: 15 ng probe, 0.01-1.0 uM protein, 60 min; for MHQ tests protein diluted to 0.6 uM in 10 mM Tris-HCl pH 7.5 and treated with 0.5-100 mM MHQ for 30 min at …
T17 sequence: T1 sequence with A11F, V91A

[18] = test system: T18, SaMhqR S66A S66A (Staphylococcus aureus COL), ORF:0a4449b0; assay: EMSA; conditions: EMSA: 15 ng probe, 0.01-1.0 uM protein, 60 min; for MHQ tests protein diluted to 0.6 uM in 10 mM Tris-HCl pH 7.5 and treated with 0.5-100 mM MHQ for 30 min at …
T18 sequence: T1 sequence with A11F, S66A

[19] = test system: T19, SaMhqR E38A E38A (Staphylococcus aureus COL), ORF:0a4449b0; assay: EMSA; conditions: EMSA: 15 ng probe, 0.01-1.0 uM protein, 60 min; for MHQ tests protein diluted to 0.6 uM in 10 mM Tris-HCl pH 7.5 and treated with 0.5-100 mM MHQ for 30 min at …
T19 sequence: T1 sequence with A11F, E38A

[20] = test system: T20, SaMhqR D88A D88A (Staphylococcus aureus COL), ORF:0a4449b0; assay: EMSA; conditions: EMSA: 15 ng probe, 0.01-1.0 uM protein, 60 min; for MHQ tests protein diluted to 0.6 uM in 10 mM Tris-HCl pH 7.5 and treated with 0.5-100 mM MHQ for 30 min at …
T20 sequence: T1 sequence with A11F, D88A

[21] = test system: T21, SaMhqR S64A S64A (Staphylococcus aureus COL), ORF:0a4449b0; assay: EMSA; conditions: EMSA: 15 ng probe, 0.01-1.0 uM protein, 60 min; for MHQ tests protein diluted to 0.6 uM in 10 mM Tris-HCl pH 7.5 and treated with 0.5-100 mM MHQ for 30 min at …
T21 sequence: T1 sequence with A11F, S64A

[22] = target: MarR-type repressor MhqR of Staphylococcus aureus (SaMhqR), wild type, C-terminally His-tagged (Staphylococcus aureus (COL)); assay: SEC-MALS; Superdex 200 Increase 10/300, HEPES buffer (20 mM HEPES, 20 mM MgCl2, 200 mM NaCl, 20 mM KCl)

With “ACATATCAACTCCTATCATGATTGATTATAGTATTTCCCTATTCTATTTTAACTTAAACGAAGTCAAAGGTGCATGACAGTCATGTGACGACATTGCCACATCTATGTAGTCGTTTTTATTAAGCACAGTTTGAAATGAAGATGAAAACACGTATCTTGACATTAAATCTATTCAGTTATATAATTTATCTCGAAATCGAAATAAAATAAAAAAGTTGGTGATCATATGGATCGAACG (double strand) [mhqRED promoter probe]” the binding [1] was “binds more weakly”, the binding [2] was “binds more weakly” and the binding [3] was “binds more weakly”. For the same substance, the binding [4] was “binds more weakly”, the binding [5] was “binds more weakly” and the binding [6] was “binds more weakly”. The binding [7] was “binds”, the binding [8] was “binds more weakly” and the binding [9] was “binds more weakly”. The binding [10] was “binds more weakly”, the binding [11] was “binds more weakly” and the binding [12] was “binds more weakly”. The binding [13] was “no binding”, the binding [14] was “binds more weakly” and the binding [15] was “binds”. The binding [16] was “binds more weakly”, the binding [17] was “binds more weakly” and the binding [18] was “binds more weakly”. For the same substance, the binding [19] was “binds more weakly”, the binding [20] was “binds more weakly” and the binding [21] was “binds”.

“MarR-type repressor MhqR of Staphylococcus aureus (SaMhqR), wild type, C-terminally His-tagged (natural protein)” was tested, and the stoichiometry N [22] was 2.

— publication PMC12893000, “Structural basis of quinone sensing by the MarR-type repressor MhqR in Staphylococcus aureus” (mBio, 2025)
